Values belong to the substance of their own block, whether it stands above or below them.
Tests used:
platelet GPIbα = target: T1, platelet GPIbα (Homo sapiens, UniProt P07359); assay: Platelet pause times on surface-captured A1 domain variants, parallel plate flow chamber (Table 4, Example 3); format: cell-based; design: key to Pause Time 1500 s^−1 (s): NB = “No Binding.”; conditions: for Platelet binding to surface-captured A1 domain variant: any shear rate; for Pause Time 1500 s^−1 (s): shear rate 1500 s^−1, mean ± std. dev., number of measurements in parentheses, NB = No Binding
T1 construct: endogenous in cells; host or cells: platelets in citrated whole blood of normal healthy volunteer donors
Description: The determination and analysis of platelet pause times and instantaneous translocation velocities over surface captured A1 and RCAM A1 was performed as previously described (Tischer:2013). Here, the inventor used the Cellix Mims Evo syringe pump controlled by VenaFluxAssay (www.cellixltd.com). Vena8™ CGS biochips were custom designed with 800 μm width by 80 μm height microchannels bonded to glass slides with a Cu^2+ chelated PEG surface serviced by Microsurfaces Inc. (www.proteinslides.com/histag.html) to which the A1 and RCAM A1 in TBS were captured by the 6×His-Tag at a total concentration of 5 μM. Citrated whole blood was obtained from the informed consent of healthy volunteer donors with approval from the Mayo Clinic Institutional Review Board and 100 μL was perfused over the surface captured A1 domains at 700 s^−1. The shear was increased or decreased in a stepwise manner to measure the dynamics of platelet adhesion at high and low shear. After allowing the flow chamber to equilibrate for 50 s at each shear rate, 1 min movies were recorded at 24 frames per second in phase contrast at 200× magnification with 2×2 pixel binning on a Zeiss AxioCam Mrm camera (6.45 μm/px) attached to a Zeiss Axio Observer.D1 inverted microscope. Tracking analysis was performed using MediaCybernetics ImagePro® Premier (www.mediacy.com/index.aspx?page=IP\_Premier) The distance travelled in the direction of flow was calculated from the coordinate data for each platelet as a function of time using √{square root over ((xt−x0)^2)}, where x0 is the coordinates of a platelet on the first frame of the movie and xt is the coordinate on subsequent frames of the movie. These trajectories were differentiated into instantaneous velocities using a Savitzky-Golay algorithm (Savitzky:1964) with a five data point window size and a second order polynomial implemented into a Mathematica (www.wolfram.com/mathematica) notebook written in our lab. Trajectories were retained for statistical analysis if the platelet was present for ≧1 s and travelled a total distance greater than 1 Distance travelled in pixels (px) was converted to (μm) using 6.45 μm/px*2/200=0.0645 μm/px. Pause times were determined by the amount of time (sec) a platelets velocity was 0±4 px/s≅0±0.23 μm/s, within the noise. Data are reported as mean velocities and pause times attained by individual platelets averaged over all platelets analyzed. Integral analysis of the cumulative pause time histogram gives the survival fraction, equation (24).
The rheological interaction of platelets with A1 domain variants harboring type 2M and type 2B mutations was studied using recently developed flow-chamber methods (19). The A1 domains ([…]) were immobilized on Vena8™ biochips (Cellix, Dublin, Ireland) coated with a Cu^2+-chelated poly-ethylene-glycol surface serviced by MicroSurfaces, Inc. (Englewood, N.J.) via the 6×His-Tag, enabling the preservation of the structural properties of the domain in solution and its concomitant effects on platelet adhesion under rheological shear flow. One-hundred microliters of citrated whole blood, obtained from the informed consent of normal healthy volunteer donors with approval from the Mayo Clinic Institutional Review Board (Rochester, Minn.), was perfused at a shear rate of 800 s^−1 followed by Tris-buffered saline. Platelets translocating on the surface-captured domains were filmed at 24 frames/s for 1 min at logarithmic intervals of the shear rate. Coordinates obtained from tracking analysis of the resulting movies were processed using the inventor recently developed statistical analytics for the quantification of cellular adhesion dynamics across immobilized receptors under rheological shear flow (supra). Biochips lacking the surface-captured A1 domain were completely inert to platelets.

[1] = Conformational and thermodynamic classification of A1 domain variants (urea and thermal denaturation, CD, FL, ANS); format: physicochemical; conditions: for Thermodynamic stability: urea and thermal denaturation
Description: Circular dichroism measurements were performed on a Model No. 420C circular-dichroism spectrometer (Aviv Biomedical, Inc., Lakewood Township, N.J.). All fluorescence (FL) measurements were performed on a Fluorolog3 spectrofluorometer (HORIBA Jobin-Yvon, Edison, N.J.) equipped with a Model No. LF1-3751 temperature controller (Wavelength Electronics Inc., Bozeman, Mont.). Near- and far-ultraviolet (UV) circular dichroism (CD), intrinsic protein FL, and ANS (8-anilino naphthalene sulfonic acid) […] spectra were determined as described in Tischer et al. (19). Urea denaturation (monitored by far-UV CD) and thermal denaturation (monitored by far-UV CD, intrinsic protein FL, and ANS FL) were performed and analyzed as previously described (19,20). Acrylamide quenching of intrinsic tryptophan fluorescence was performed and analyzed as described in Tischer et al. (19). All spectra were collected at 20° C.
The effects of mutations on the thermodynamic stability of A1 (18) was determined and a framework that incorporated partial unfolding as a means for enhancing the binding affinity of A1 for GPIba was developed (17). Initially, urea-temperature phase diagram method were used for assessing the reversible thermodynamics of unfolding at various temperatures (18,21), and more recently thermal denaturations were used to assess kinetic irreversibility (20,22). The inventor employed these methods using a variety of spectroscopic observables that assess the conformation of these A1 domain variants as a function of temperature and urea.
The observables included the following: (1) Far-UV CD to assess secondary structure content; (2) Near-UV CD to assess tertiary structure content; (3) Intrinsic protein FL to assess solvent exposure of tyrosine and tryptophan residues; (4) Acrylamide quenching of tryptophan FL to assess local solvent exposure of the single tryptophan residue; and (5) Binding of the molten globule indicator-dye, ANS, to assess exposure of hydrophobic surface area.
In total, these studies have provided metrics that are able to classify the conformation of A1 into three types, based on biophysical spectroscopy, as follows:
The type 2B mutations R1306Q and I1309V and the type 2M mutation G1324S have previously been characterized in this conformational class (18). In addition, R1308L and I1372S also belong to this class.
The type 2M mutation A1437T and the type 2B mutation R1341Q belong to this class.
The type 2M mutations F1369I, E1359K, I1425F, S1285F, and R1374H, and the type 2B mutations H1268D, P1337L, V1316M, and V1314D, belong to this class.

Substance: H1268D: vWF A1 domain variant with type 2B vWD mutation H1268D
Conformational class (in words) [1]: significantly reduced tertiary structure content

Substance: H1308L: vWF A1 domain variant with type 2B vWD mutation, printed H1308L in Table 4, R1308L elsewhere
A1 domain Conformation [1]: N (N = “Native” (native structure with varying thermodynamic stability))
Conformational class (in words) [1]: global native fold

Substance: I1309V: vWF A1 domain variant with type 2B vWD mutation I1309V
A1 domain Conformation [1]: N (N = “Native” (native structure with varying thermodynamic stability))
Conformational class (in words) [1]: global native fold

Substance: I1372S: vWF A1 domain variant with type 2B vWD mutation I1372S
A1 domain Conformation [1]: N (N = “Native” (native structure with varying thermodynamic stability))
Conformational class (in words) [1]: global native fold

Substance: R1306Q: vWF A1 domain variant with type 2B vWD mutation R1306Q
A1 domain Conformation [1]: N (N = “Native” (native structure with varying thermodynamic stability))
Conformational class (in words) [1]: global native fold

Substance: R1341Q: vWF A1 domain variant with type 2B vWD mutation R1341Q
Conformational class (in words) [1]: reduced secondary structure content
Thermodynamic stability [1]: low stability

Substance: V1314D: vWF A1 domain variant with type 2B vWD mutation V1314D
Conformational class (in words) [1]: significantly reduced tertiary structure content

Substance: V1316M: vWF A1 domain variant with type 2B vWD mutation V1316M
Conformational class (in words) [1]: significantly reduced tertiary structure content

More lines, main results first:

Platelet adhesion function (gain or loss of function) (platelet GPIbα): mild loss-of-function
Substance: A1437T: vWF A1 domain variant with type 2M vWD mutation A1437T
Conformational class (in words) [1]: reduced secondary structure content
Thermodynamic stability [1]: low stability

Platelet adhesion function (gain or loss of function) (platelet GPIbα): complete loss-of-function
Platelet binding to surface-captured A1 domain variant (platelet GPIbα): did not bind platelets at any shear rate
Pause Time 1500 s^−1 (s) (platelet GPIbα): NB (2)
Substance: E1359K: vWF A1 domain variant with type 2M vWD mutation E1359K
Conformational class (in words) [1]: significantly reduced tertiary structure content

Platelet adhesion function (gain or loss of function) (platelet GPIbα): complete loss-of-function
Platelet binding to surface-captured A1 domain variant (platelet GPIbα): did not bind platelets at any shear rate
Pause Time 1500 s^−1 (s) (platelet GPIbα): NB (2)
Substance: F1369I: vWF A1 domain variant with type 2M vWD mutation F1369I
Conformational class (in words) [1]: significantly reduced tertiary structure content

Pause Time 1500 s^−1 (s) (platelet GPIbα): NB (3)
Substance: G1324S: vWF A1 domain variant with type 2M vWD mutation G1324S
A1 domain Conformation [1]: N (N = “Native” (native structure with varying thermodynamic stability))
Conformational class (in words) [1]: global native fold

Platelet binding to surface-captured A1 domain variant (platelet GPIbα): did not bind platelets at any shear rate
Pause Time 1500 s^−1 (s) (platelet GPIbα): NB (2)
Substance: I1425F: vWF A1 domain variant with type 2M vWD mutation I1425F
Conformational class (in words) [1]: significantly reduced tertiary structure content

Platelet adhesion function (gain or loss of function) (platelet GPIbα): extreme type 2B gain-of-function
Substance: P1337L: vWF A1 domain variant with type 2B vWD mutation P1337L
Conformational class (in words) [1]: significantly reduced tertiary structure content

Platelet binding to surface-captured A1 domain variant (platelet GPIbα): did not bind platelets at any shear rate
Pause Time 1500 s^−1 (s) (platelet GPIbα): NB (2)
Substance: R1374H: vWF A1 domain variant with type 2M vWD mutation R1374H
Conformational class (in words) [1]: significantly reduced tertiary structure content

Platelet binding to surface-captured A1 domain variant (platelet GPIbα): did not bind platelets at any shear rate
Pause Time 1500 s^−1 (s) (platelet GPIbα): NB (2)
Substance: S1285F: vWF A1 domain variant with type 2M vWD mutation S1285F
Conformational class (in words) [1]: significantly reduced tertiary structure content
